According to patent US20130079286A1 (Pieris, published 2013):

T1: ovalbumin (UniProt P01012 2-386)
T1 sequence (looked up): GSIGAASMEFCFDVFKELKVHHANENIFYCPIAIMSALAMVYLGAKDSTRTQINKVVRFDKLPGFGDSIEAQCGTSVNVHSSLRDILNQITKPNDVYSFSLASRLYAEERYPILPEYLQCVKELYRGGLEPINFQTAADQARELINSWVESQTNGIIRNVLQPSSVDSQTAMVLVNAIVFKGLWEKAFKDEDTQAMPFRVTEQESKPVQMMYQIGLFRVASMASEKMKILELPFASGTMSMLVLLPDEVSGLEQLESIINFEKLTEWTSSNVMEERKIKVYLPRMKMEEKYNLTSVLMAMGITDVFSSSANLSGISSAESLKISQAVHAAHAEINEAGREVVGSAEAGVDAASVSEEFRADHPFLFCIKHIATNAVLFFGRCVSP

B1: Lcn2 mutein H1-G1 (designed binder)
chain: QDSTSDLIPAPPLSKVPLQQNFQDNQFHGKWYVVGCAGNVLLREDKDPLKMYATIYELKEDKSYNVTSVGFDDKKCLYKIRTFVPGSQPGEFTLGRIKSEPGGTSWLVRVVSTNYNQHAMVFFKEVAQNRETFNITLYGRTKELTSELKENFIRFSKSLGLPENHIVFPVPIDQCIDG
notes: carries a free Cys at position 36
B2: Lcn2 mutein N7A (designed binder)
chain: QDSTSDLIPAPPLSKVPLQQNFQDNQFHGKWYVVGKAGNHDLREDKDPRKMQATIYELKEDKSYNVTNVRFVHKKCNYRIWTFVPGSQPGEFTLGNIKSWPGLTSWLVRVVSTNYNQHAMVFFKRVYQNRELFEITLYGRTKELTNELKENFIRFSKSLGLPENHIVFPVPIDQCIDG
B3: Lcn2 mutein N7E (designed binder)
chain: QDSTSDLIPAPPLSKVPLQQNFQDNQFHGKWYVVGEAGNSLLREDKDPRKMYATIYELKEDKSYNVTSVRFRSKKCHYLIRTFVPGSQPGEFTLGLIKSKPGHTSFLVRVVSTNYNQHAMVFFKTVAQNREYFFITLYGRTKELTSELKENFIRFSKSLGLPENHIVFPVPIDQCIDG
B4: Lcn2 mutein N10D (designed binder)
chain: QDSTSDLIPAPPLSKVPLQQNFQDNQFHGKWYVVGAAGNTWLREDKDPYKMQATIYELKEDKSYNVTNVLFMSKKCRYMIHTFVPGSQPGEFTLGSIKSWPGLTSWLVRVVSTNYNQHAMVFFKRVYQNREFFGITLYGRTKELTSELKENFIRFSKSLGLPENHIVFPVPIDQCIDG
notes: also called NIOD; NI OD

Experiments:
[1] = target: T1, ovalbumin; assay: capture ELISA: 1 µM Lcn2 protein captured via Strep-tag II on coated StrepMAB-Immo, biotinylated target titrated, ExtrAvidin/AP + pNPP
Procedure: (§1) FIG. 5 depicts the binding activity of the Lcn2 muteins H1-G1, S1-A4, and US7 in capture ELISAs with different biotinylated Aβ targets. StrepMAB-Immo at 10 μg/ml was immobilized on microtitre plates and employed for capturing of 1 JAM Lcn2 muteins via the Strep-tag H. In figures A to C the binding of the Lcn2 muteins S1-A4 and US7 to (A) biotinylated Aβ40, (B) biotinylated Trx-Aβ28, and (C) biotinylated MBP-Aβ40 are shown. Binding was detected by incubation with ExtrAvidin/AP and a subsequent chromogenic reaction with pNPP. Ovalbumin (Ova), thioredoxin (Trx), and maltose binding protein (MBP) were used as negative controls. Additionally, binding of wild-type (wt) lipocalin was tested. The data were fitted to a monovalent binding model.
(§2) For selective capturing of the Lcn2 muteins carrying the C-terminal Strep-tag II (Schmidt and Skerra (2007) Nat. Protoc. 2, 1528-1535), a 96-well MaxiSorp polystyrene microtitre plate (Nunc, Langenselbold, Germany) was coated with 10 μg/mL StrepMAB-Immo (IBA, Göttingen, Germany) in PBS over night at 4° C. and blocked with 3% (w/v) BSA in PBS/T at room temperature for 1 h. After 3 washing steps with PBS/T, 50 μL of a 1 μM solution of the purified Lcn2 muteins from Example 7 were applied to all wells for 1 h. After washing, 50 μL of a dilution series of the biotinylated targets Aβ40, MBP-Aβ40 or Trx-Aβ28 from Example 2 were added and incubated for 1 h whereby the biotinylated forms of Ova, MBP and Trx from Example 2 served as negative control proteins. The wells were washed again and bound conjugate was detected with 50 μL of ExtrAvidin/AP conjugate (Sigma-Aldrich, Steinheim, Germany) diluted 1:5000 in PBS/T for 1 h, followed by signal development in the presence of 100 μL 0.5 mg/mL p-nitrophenyl phosphate (AppliChem, Darmstadt, Germany) in 100 mM Tris/HCl, pH 8.8, 100 mM NaCl, 5 mM MgCl₂.

[2] = target: T2, Trx-Aβ28 fusion protein (Escherichia coli (strain K12), UniProt P0AA25 1-76 = thioredoxin, Biotin-labelled through an NHS ester (2:1) in the capture and competitive ELISAs; unlabeled in the direct ELISA and as competitor.); assay: capture ELISA: mutein captured, biotinylated Trx-Aβ28 titrated
T2 construct: the entry may be a nucleic acid; also called TrxAbeta28H6
Procedure: as §1, §2

[3] = target: T2, Trx-Aβ28 fusion protein; assay: direct ELISA: Trx-Aβ28 coated, mutein titrated, detected via Strep-tag II
Procedure: The Aβ targets Trx-Aβ28 and MBP-Aβ40 as well as the control protein maltose binding protein (MBP) were immobilized at 2 μM in PBS over night. Bound Lcn2 muteins were detected via their Strep-tag II using Streptavidin/AP followed by a chromogenic reaction with pNPP. As a control, the binding of wild-type (wt) lipocalin was tested. The data were fitted to a monovalent binding model.
Alternatively, for a “direct” ELISA, 2 μM unlabeled Aβ40 target from Example 2 was adsorbed onto a 96-well MaxiSorp polystyrene microliter plate (Nunc, Langenselbold, Germany) and incubated with the purified Lcn2 mutein, which was detected via the Strep-tag II using a 1:1500 dilution of Streptavidin/AP conjugate (GE Healthcare UK Ltd, Buckinghamshire, UK). As a control, 2 μM MBP from Example 2 was adsorbed onto the ELISA plate. Absorption at 405 nm was measured in a SpectraMax 250 reader (Molecular Devices, Sunnyvale, USA).

[4] = target: T2, Trx-Aβ28 fusion protein; assay: capture ELISA: mutein captured via Strep-tag II, biotinylated Trx-Aβ28 titrated
Procedure: (§3) FIG. 19 depicts the binding activity of the Lcn2 muteins H1GA, H1GV, and H1-G1 in capture ELISAs with the biotinylated Aβ targets Aβ40 (A) and Trx-Aβ28 (B). StrepMAB-Immo was immobilized at 10 μg/ml on microtitre plates and employed for capturing of 1 μM Lcn2 muteins via the Strep-tag H. Binding of the biotinylated targets, applied in a dilution series, was then detected by incubation with ExtrAvidin/AP and a subsequent chromogenic reaction with pNPP. […] The data were fitted to a monovalent binding model.

[5] = target: T3, biotinylated Aβ40 peptide (human, C-terminal biotin group attached via a lysine spacer); assay: capture ELISA: mutein captured via Strep-tag II on StrepMAB-Immo, biotinylated Aβ40 titrated
T3 construct: Synthetic peptide (Peptide Speciality Laboratory) with a C-terminal biotin on a lysine spacer; used in the capture ELISAs
T3 sequence (peptide, as listed by the source): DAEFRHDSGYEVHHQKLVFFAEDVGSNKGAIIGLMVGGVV
Procedure: as §1, §2

[6] = target: T3, biotinylated Aβ40 peptide; assay: capture ELISA: mutein captured via Strep-tag II, biotinylated Aβ40 titrated
Procedure: as §3

[7] = target: T4, recombinant fibronectin single domain ED-B (human); assay: SPR (BIAcore X), ED-B immobilised by amine coupling, Lcn2 mutein injected at 0 to 160 nM, 1:1 model
T4 construct: the entry may be a nucleic acid; also called extra domain-B; extra-domain B
T4 sequence (chain, as listed by the source limits assumed): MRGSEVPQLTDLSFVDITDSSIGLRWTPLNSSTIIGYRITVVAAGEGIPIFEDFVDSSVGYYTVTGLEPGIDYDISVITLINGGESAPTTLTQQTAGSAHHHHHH
Procedure: (§4) FIG. 27 depicts the kinetic real time analysis of Lcn2 variants N7A (A), N7E (B), N9B (C) and N10D (D) measured on a Biacore X instrument. The single fibronectin domain ED-B was coupled via amine chemistry to a CMD 200 m sensor chip (ΔRU=180) and the purified Lcn2 variants were applied at varying concentrations. The measured signals are shown as traces together with the curve fits.
(§5) Real time interaction analysis of Lcn2 muteins was performed on a BIAcore X instrument using HBS/ET (20 mM Hepes, pH 7.5, 150 mM NaCl, 1 mM EDTA containing 0.005% (v/v) Tween 20) as running buffer. 100 μg/ml solution of recombinant ED-B in 10 mM Na-acetate, pH 4.0 was immobilized on a CMD 200 m Sensorchip using standard amine coupling chemistry, resulting in a ligand density of about 180 resonance units (RU). The purified Lcn2 mutein was applied at a flow rate of 25 μl/min at concentrations of 2.5 up to 160 nM. The sensorgrams were corrected by subtraction of the corresponding signals measured for the control channel, which had been activated and blocked with ethanolamine. […] In the case of N10D the heterogeneous analyte competing reaction model was used for data fitting, resulting in two sets of kinetic constants.

[8] = target: T5, recombinant human fibronectin fragment FN789 (human, UniProt P02751 1173-1539); assay: ELISA on coated protein
T5 construct: the entry may be a nucleic acid
T5 sequence (P02751 other isoform, or with tags, fused parts or gaps limits assumed): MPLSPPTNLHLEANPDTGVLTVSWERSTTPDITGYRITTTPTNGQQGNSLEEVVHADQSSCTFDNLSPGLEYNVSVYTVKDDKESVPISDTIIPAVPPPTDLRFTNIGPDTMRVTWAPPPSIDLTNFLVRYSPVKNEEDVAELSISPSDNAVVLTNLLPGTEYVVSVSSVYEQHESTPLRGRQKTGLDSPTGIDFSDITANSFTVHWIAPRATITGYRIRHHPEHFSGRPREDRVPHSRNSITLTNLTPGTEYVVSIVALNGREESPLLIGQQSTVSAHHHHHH

[9] = target: T6, BSA (bovine, UniProt P02769 25-607); assay: ELISA on coated protein
T6 construct: also called bovine serum albumin
T6 sequence (P02769 25-607 limits assumed): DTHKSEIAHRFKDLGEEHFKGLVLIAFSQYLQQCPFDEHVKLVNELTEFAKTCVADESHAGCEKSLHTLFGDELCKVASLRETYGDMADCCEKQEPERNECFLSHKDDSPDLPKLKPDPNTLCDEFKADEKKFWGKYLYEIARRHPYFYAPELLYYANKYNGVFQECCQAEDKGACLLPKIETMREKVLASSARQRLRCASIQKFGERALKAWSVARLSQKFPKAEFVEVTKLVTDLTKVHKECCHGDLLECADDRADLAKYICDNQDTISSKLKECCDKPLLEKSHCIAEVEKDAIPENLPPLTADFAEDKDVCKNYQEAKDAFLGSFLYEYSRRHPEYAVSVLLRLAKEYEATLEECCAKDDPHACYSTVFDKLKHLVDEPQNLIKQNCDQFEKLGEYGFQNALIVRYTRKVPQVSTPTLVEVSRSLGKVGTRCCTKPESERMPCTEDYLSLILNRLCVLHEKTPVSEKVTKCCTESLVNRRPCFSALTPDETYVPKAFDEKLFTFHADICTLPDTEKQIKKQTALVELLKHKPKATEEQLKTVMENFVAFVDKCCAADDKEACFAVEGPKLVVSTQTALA

[10] = target: T7, recombinant human fibronectin fragment FN7B8 (human, UniProt P02751 1173-1448); assay: SPR (BIAcore X), FN7B8 amine-coupled (about 500 RU), mutein as analyte
T7 construct: no separate number is printed for the protein, so the entry may be a nucleic acid
T7 sequence (P02751 other isoform, or with tags, fused parts or gaps limits assumed): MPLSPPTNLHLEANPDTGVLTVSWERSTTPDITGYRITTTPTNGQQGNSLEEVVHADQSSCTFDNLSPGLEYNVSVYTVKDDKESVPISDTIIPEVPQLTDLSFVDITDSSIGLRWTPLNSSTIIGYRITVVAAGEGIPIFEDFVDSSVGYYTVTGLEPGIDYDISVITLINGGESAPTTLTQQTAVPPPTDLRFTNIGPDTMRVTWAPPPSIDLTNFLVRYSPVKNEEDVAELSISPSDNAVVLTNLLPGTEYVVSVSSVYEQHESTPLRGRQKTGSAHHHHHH
Description: (§6) FIG. 13 depicts the kinetic real time analysis of Lcn2 mutein N9B measured on a Biacore instrument. FN7B8 was coupled via amine chemistry to a CMD 200 m sensor chip (ΔRU=500) and the purified Lcn2 mutein was applied at varying concentrations. The measured signal is shown as a grey line whereas the curve fit is depicted as a black line in each case.
as §6, with “14” for “13”, “N7E” for “N9B”
Real time analysis of Lcn2 muteins was performed on a BIAcore X system (BIAcore, Uppsala, Sweden) using HBS/ET (20 mM Hepes, pH 7.5, 150 mM NaCl, 1 mM EDTA containing 0.005% (v/v) Tween 20) as running buffer. 200 μg/ml solution of recombinant FN7B8 in 10 mM Na-acetate, pH 4.0 was immobilized on a CMD 200 m Sensorchip (XanTec bioanalytics, Duesseldorf, Germany) using standard amine coupling chemistry (Biacore, Uppsala, Sweden), resulting in a ligand density of about 500 resonance units (RU). The purified Lcn2 mutein was applied at a flow rate of 25 μl/min at concentrations of 2.5 up to 160 nM. The sensorgrams were corrected by subtraction of the corresponding signals measured for the control channel, which had been activated and blocked with ethanolamine.

[11] = target: T4, recombinant fibronectin single domain …; assay: SPR (BIAcore X), ED-B amine-coupled (about 180 RU), mutein as analyte
Procedure: as §4, §5

[12] = target: T7, recombinant human fibronectin fragment …; assay: ELISA: FN7B8 coated, mutein titrated, detected via Strep-tag II
[13] = target: T4, recombinant fibronectin single domain …; assay: SPR (BIAcore X), ED-B amine-coupled; heterogeneous analyte competing reaction model, second set
Procedure: as §5

[14] = target: T4, recombinant fibronectin single domain …; assay: SPR (BIAcore X), ED-B amine-coupled; heterogeneous analyte competing reaction model, first set
Procedure: as §5

Row | Binder | binding result [1] | Kd [2] | Kd [3] | Kd [4] | Kd [5] | Kd [6] | Kd [7] | binding result [8] | binding result [9] | Kd [10] | koff [10] | kon [10] | Kd [11] | koff [11] | kon [11] | Kd [12] | koff [13] | kon [13] | koff [14] | kon [14]
1 | B1 | no binding | 24.3 nM | 290 nM | 24.4 nM | 16.2 nM | 21.5 nM | – | – | – | – | – | – | – | – | – | – | – | – | – | –
2 | B2 | – | – | – | – | – | – | 120 nM | no binding | no binding | 5.8 nM | 0.026 s⁻¹ | 4.6e+06 M⁻¹ s⁻¹ | 127 nM | 0.138 s⁻¹ | 1.8e+06 M⁻¹ s⁻¹ | 14.8 nM | – | – | – | –
3 | B3 | – | – | – | – | – | – | 17 nM | – | – | 7.2 nM | 0.03 s⁻¹ | 4.1e+06 M⁻¹ s⁻¹ | 17.3 nM | 0.054 s⁻¹ | 3.1e+06 M⁻¹ s⁻¹ | 30 nM | – | – | – | –
4 | B4 | – | – | – | – | – | – | – | no binding | no binding | 38 nM | 0.058 s⁻¹ | 1.5e+06 M⁻¹ s⁻¹ | – | – | – | 51.2 nM | 0.00335 s⁻¹ | 29400 M⁻¹ s⁻¹ | 0.064 s⁻¹ | 621000 M⁻¹ s⁻¹
